# Results taken from patent US20150133367A1 (University of Pennsylvania, published 2015).
# Several values for one entry are separate records, joined by “and”; a condition that tells them apart may be missing. Identical values can stand only once. Like-named read-outs stand apart in the source and are kept apart here. Positions of bridges follow the written chain, without caps; N, C: chain ends. Non-standard residues stand in square brackets, D forms with d. No end group written: not given here. alpha,alpha'‑meta‑xylylene = alpha,alpha'-meta-xylylene linker (from a,a'-dibromo-meta-xylene) bridging two cysteines via bis-thioether; βAla = NCCC(=O)O
# T1: Calpain-1
# T1 chain 1: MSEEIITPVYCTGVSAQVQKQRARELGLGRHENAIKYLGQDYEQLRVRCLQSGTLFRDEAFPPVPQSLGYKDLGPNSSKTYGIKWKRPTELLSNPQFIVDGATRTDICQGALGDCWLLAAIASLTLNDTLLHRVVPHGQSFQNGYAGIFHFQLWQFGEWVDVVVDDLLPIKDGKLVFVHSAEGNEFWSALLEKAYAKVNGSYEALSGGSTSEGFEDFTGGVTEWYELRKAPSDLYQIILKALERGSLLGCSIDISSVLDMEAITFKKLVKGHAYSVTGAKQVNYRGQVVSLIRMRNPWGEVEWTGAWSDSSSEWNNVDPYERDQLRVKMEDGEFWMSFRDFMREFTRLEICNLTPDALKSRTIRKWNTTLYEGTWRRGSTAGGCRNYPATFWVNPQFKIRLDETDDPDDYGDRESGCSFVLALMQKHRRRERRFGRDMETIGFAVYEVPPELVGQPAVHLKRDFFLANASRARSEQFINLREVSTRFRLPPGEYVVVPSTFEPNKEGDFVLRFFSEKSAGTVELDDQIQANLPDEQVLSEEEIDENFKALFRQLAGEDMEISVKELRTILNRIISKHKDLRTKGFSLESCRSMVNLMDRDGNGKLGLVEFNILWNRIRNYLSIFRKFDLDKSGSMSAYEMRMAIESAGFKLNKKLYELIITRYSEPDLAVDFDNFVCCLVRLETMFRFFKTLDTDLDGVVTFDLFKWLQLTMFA
# T1 chain 2: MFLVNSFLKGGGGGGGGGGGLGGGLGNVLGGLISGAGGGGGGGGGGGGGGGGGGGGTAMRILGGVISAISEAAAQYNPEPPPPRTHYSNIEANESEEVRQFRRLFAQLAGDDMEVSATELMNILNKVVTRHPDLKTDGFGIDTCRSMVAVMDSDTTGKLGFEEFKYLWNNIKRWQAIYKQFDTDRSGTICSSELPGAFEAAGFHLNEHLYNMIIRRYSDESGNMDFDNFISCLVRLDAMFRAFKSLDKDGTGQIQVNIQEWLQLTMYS
# T2: Cathepsin K (UniProt P43235 115-329)
# T2 sequence (looked up): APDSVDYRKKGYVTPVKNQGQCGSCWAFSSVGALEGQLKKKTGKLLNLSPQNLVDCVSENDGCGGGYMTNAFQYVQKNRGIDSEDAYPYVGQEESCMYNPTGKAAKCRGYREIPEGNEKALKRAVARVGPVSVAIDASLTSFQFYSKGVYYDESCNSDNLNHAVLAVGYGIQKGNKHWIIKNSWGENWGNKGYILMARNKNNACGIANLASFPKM
# B1: DPPKYCELLC (SEQ ID NO:71) (peptide)
# peptide: DPPKYCELLC
# modifications: linker 6-10 via alpha,alpha'‑meta‑xylylene
# B2: I(pf5)PKYCELLC (SEQ ID NO:77) (peptide)
# peptide: IXPKYCELLC
# modifications: Cys6 and Cys10 (i,i+4) linked by alpha,alpha'-meta-xylylene; residue 2 pf5 = pentafluorophenylalanine
# B3: FFEFFCSLMCS (SEQ ID NO:27) (peptide)
# peptide: FFEFFCSLMCS
# modifications: linker 6-10 via alpha,alpha'‑meta‑xylylene
# B4: SCEEVCKPGGP (SEQ ID NO:47) (peptide)
# peptide: SCEEVCKPGGP
# modifications: linker 2-6 via alpha,alpha'‑meta‑xylylene
# B5: IPPKYCELFC (SEQ ID NO:88) (peptide)
# peptide: IPPKYCELFC
# modifications: linker 6-10 via alpha,alpha'‑meta‑xylylene
# B6: PPPKYCELLC (SEQ ID NO:73) (peptide)
# peptide: PPPKYCELLC
# modifications: linker 6-10 via alpha,alpha'‑meta‑xylylene
# B7: SCESVCKMTGL (SEQ ID NO:37) (peptide)
# peptide: SCESVCKMTGL
# modifications: linker 2-6 via alpha,alpha'‑meta‑xylylene
# B8: SCEVVCKMTGP (SEQ ID NO:44) (peptide)
# peptide: SCEVVCKMTGP
# modifications: linker 2-6 via alpha,alpha'‑meta‑xylylene
# B9: TSEEVCSLMCS (SEQ ID NO:16) (peptide)
# peptide: TSEEVCSLMCS
# modifications: linker 6-10 via alpha,alpha'‑meta‑xylylene
# B10: WSEEVCSLMCS (SEQ ID NO:17) (peptide)
# peptide: WSEEVCSLMCS
# modifications: linker 6-10 via alpha,alpha'‑meta‑xylylene
# notes: single mutant
# B11: WWEWWCSLMCS (SEQ ID NO:26) (peptide)
# peptide: WWEWWCSLMCS
# modifications: linker 6-10 via alpha,alpha'‑meta‑xylylene
# notes: quadruple mutant; also called compound (IVa)
# B12: TWEWVCSLMCS (SEQ ID NO:23) (peptide)
# peptide: TWEWVCSLMCS
# modifications: linker 6-10 via alpha,alpha'‑meta‑xylylene
# notes: double mutant
# B13: WWEWVCSLMCS (SEQ ID NO:25) (peptide)
# peptide: WWEWVCSLMCS
# modifications: linker 6-10 via alpha,alpha'‑meta‑xylylene
# notes: triple mutant
# B14: TSEEWCSLMCS (SEQ ID NO:21) (peptide)
# peptide: TSEEWCSLMCS
# modifications: linker 6-10 via alpha,alpha'‑meta‑xylylene
# notes: single mutant
# B15: TWEEVCSLMCS (SEQ ID NO:18) (peptide)
# peptide: TWEEVCSLMCS
# modifications: linker 6-10 via alpha,alpha'‑meta‑xylylene
# notes: single mutant
# B16: TSEWVCSLMCS (SEQ ID NO:20) (peptide)
# peptide: TSEWVCSLMCS
# modifications: linker 6-10 via alpha,alpha'‑meta‑xylylene
# notes: single mutant
# B17: SCEVVCKMTGLKVPL (SEQ ID NO:56) (peptide)
# peptide: SCEVVCKMTGLKVPL
# modifications: linker 2-6 via alpha,alpha'‑meta‑xylylene
# notes: 15-mer
# B18: SCESVCKPWGP (SEQ ID NO:50) (peptide)
# peptide: SCESVCKPWGP
# modifications: linker 2-6 via alpha,alpha'‑meta‑xylylene
# notes: also called compound (IIa); quadruple mutant
# B19: IPPCYRECLA (SEQ ID NO:64) (peptide)
# peptide: IPPCYRECLA
# modifications: linker 4-8 via alpha,alpha'‑meta‑xylylene
# B20: IPPKYRCLLAC (SEQ ID NO:66) (peptide)
# peptide: IPPKYRCLLAC
# modifications: linker 7-11 via alpha,alpha'‑meta‑xylylene
# B21: QPPKYCELLC (SEQ ID NO:76) (peptide)
# peptide: QPPKYCELLC
# modifications: linker 6-10 via alpha,alpha'‑meta‑xylylene
# B22: IPPKYCELLC (SEQ ID NO:65) (peptide)
# peptide: IPPKYCELLC
# modifications: linker 6-10 via alpha,alpha'‑meta‑xylylene
# B23: IPPKYCALLC (SEQ ID NO:84) (peptide)
# peptide: IPPKYCALLC
# modifications: linker 6-10 via alpha,alpha'‑meta‑xylylene
# B24: IPPRWCELLC (SEQ ID NO:91) (peptide)
# peptide: IPPRWCELLC
# modifications: linker 6-10 via alpha,alpha'‑meta‑xylylene
# B25: IPPKYCEALC (SEQ ID NO:86) (peptide)
# peptide: IPPKYCEALC
# modifications: linker 6-10 via alpha,alpha'‑meta‑xylylene
# B26: IPPRYCELLC (SEQ ID NO:80) (peptide)
# peptide: IPPRYCELLC
# modifications: linker 6-10 via alpha,alpha'‑meta‑xylylene
# B27: APPKYCELLC (SEQ ID NO:72) (peptide)
# peptide: APPKYCELLC
# modifications: linker 6-10 via alpha,alpha'‑meta‑xylylene
# B28: IPPKYCEQLC (SEQ ID NO:85) (peptide)
# peptide: IPPKYCEQLC
# modifications: linker 6-10 via alpha,alpha'‑meta‑xylylene
# notes: also called compound (Ia)
# B29: LPPKYCELLC (SEQ ID NO:74) (peptide)
# peptide: LPPKYCELLC
# modifications: linker 6-10 via alpha,alpha'‑meta‑xylylene
# B30: IPPAYCELLC (SEQ ID NO:78) (peptide)
# peptide: IPPAYCELLC
# modifications: linker 6-10 via alpha,alpha'‑meta‑xylylene
# B31: IPPKACELLC (SEQ ID NO:81) (peptide)
# peptide: IPPKACELLC
# modifications: linker 6-10 via alpha,alpha'‑meta‑xylylene
# B32: EVTIPPKYCELLC (SEQ ID NO:69) (peptide)
# peptide: EVTIPPKYCELLC
# modifications: linker 9-13 via alpha,alpha'‑meta‑xylylene
# B33: SCESVCKPWGPKVP (SEQ ID NO:55) (peptide)
# peptide: SCESVCKPWGPKVP
# modifications: linker 2-6 via alpha,alpha'‑meta‑xylylene
# notes: 14-mer
# B34: LGKREVTIPPKYCELLC (SEQ ID NO:67) (peptide)
# peptide: LGKREVTIPPKYCELLC
# modifications: linker 13-17 via alpha,alpha'‑meta‑xylylene
# notes: 17 amino acids
# B35: LFKREVTIPPKYCELLC (SEQ ID NO:68) (peptide)
# peptide: LFKREVTIPPKYCELLC
# modifications: linker 13-17 via alpha,alpha'‑meta‑xylylene
# notes: 17 amino acids
# B36: (b-Ala)AIPPKYCELLC (SEQ ID NO:70) (peptide)
# peptide: [βAla]AIPPKYCELLC
# modifications: linker 8-12 via alpha,alpha'‑meta‑xylylene
# Columns and labels:
# Assay in all cases: fluorescence-based enzyme inhibition assay
# Calpain-1 [1] = biological target: T1, Calpain-1
# Cathepsin S [2] = biological target: T3, Cathepsin S (UniProt P25774 115-331)
# T3 sequence (P25774 115-331 limits assumed): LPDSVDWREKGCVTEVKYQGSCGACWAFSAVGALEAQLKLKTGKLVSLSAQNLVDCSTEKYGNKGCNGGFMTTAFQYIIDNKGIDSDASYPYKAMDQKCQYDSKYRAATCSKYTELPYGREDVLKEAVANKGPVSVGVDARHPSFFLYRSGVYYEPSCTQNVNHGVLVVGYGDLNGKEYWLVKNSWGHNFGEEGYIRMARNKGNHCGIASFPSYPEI
# Cathepsin K [3] = biological target: T2, Cathepsin K
# Cathepsin S [4] = biological target: T3, Cathepsin S; remark: listed apart in the source
# Cathepsin L [5] = biological target: T4, Cathepsin L (UniProt P07711 114-333)
# T4 sequence (P07711 114-333 limits assumed): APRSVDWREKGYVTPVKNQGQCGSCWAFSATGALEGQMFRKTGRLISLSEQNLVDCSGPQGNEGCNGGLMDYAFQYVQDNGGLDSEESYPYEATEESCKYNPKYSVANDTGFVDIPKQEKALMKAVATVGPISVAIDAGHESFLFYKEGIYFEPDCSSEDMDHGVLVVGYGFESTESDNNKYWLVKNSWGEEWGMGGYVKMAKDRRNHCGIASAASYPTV
# Calpain-1 [6] = biological target: T1, Calpain-1
# Cathepsin K [7] = biological target: T2, Cathepsin K; remark: listed apart in the source
# Cathepsin L [8] = biological target: T4, Cathepsin L; remark: listed apart in the source
# Cathepsin S [9] = biological target: T3, Cathepsin S; remark: listed apart in the source
Ki (Calpain-1 [1]) [µM],Ki (Cathepsin L [8]) [µM],Ki (Cathepsin S [9]) [µM],also measured,Binder
27.6,,,,B1
5.09,,,,B2
,,,Ki (Cathepsin S [2]): 13.1 µM,B3
,,,Ki (Cathepsin K [3]): > 100 µM,B4
27.9,,,,B5
45.3,,,,B6
,,,Ki (Cathepsin S [4]): 10.8 µM; Ki (Cathepsin K [3]): > 100 µM,B7
,,,Ki (Cathepsin S [4]): 27.8 µM; Ki (Cathepsin K [3]): 1.34 µM and 0.659 µM,B8
,,,Ki (Cathepsin L [5]): 16.7 µM; Ki (Cathepsin S [2]): 52.1 µM,B9
,,,Ki (Cathepsin L [5]): 76 µM; Ki (Cathepsin S [2]): 51 µM; Ki (Calpain-1 [6]): 108 µM,B10
,,,Ki (Cathepsin L [5]): 28.1 µM; Ki (Cathepsin S [2]): 1.23 µM; Ki (Calpain-1 [6]): 66.7 µM; Ki (Cathepsin K [7]): 37.9 µM,B11
,,,Ki (Cathepsin L [5]): 33.8 µM; Ki (Cathepsin S [2]): 14.3 µM; Ki (Calpain-1 [6]): 88.4 µM; Ki (Cathepsin K [7]): 65.7 µM,B12
,,,Ki (Cathepsin L [5]): 16.1 µM; Ki (Cathepsin S [2]): 6.74 µM; Ki (Calpain-1 [6]): 85.5 µM; Ki (Cathepsin K [7]): 19.5 µM,B13
,,,Ki (Cathepsin L [5]): 105 µM; Ki (Cathepsin S [2]): 80.4 µM,B14
,,,Ki (Cathepsin L [5]): 93.9 µM; Ki (Cathepsin S [2]): 29.7 µM; Ki (Cathepsin K [7]): 67.5 µM,B15
,,,Ki (Cathepsin L [5]): 57.1 µM; Ki (Cathepsin S [2]): 33.1 µM,B16
,,,Ki (Cathepsin K [3]): 22.7 µM,B17
,,,Ki (Cathepsin K [3]): 17.2 µM,B18

Ki (Calpain-1 [1]) [µM],Ki (Cathepsin L [8]) [µM],Ki (Cathepsin S [9]) [µM],also measured,Binder
95.6,,,,B19
7.5,5.1,,,B20
35,,,,B21
10.2,39.9,50.2,,B22
28.9,12.5,15.6,,B23
,8.8,,,B24
30.9,21.4,13.9,,B25
5.3,37.9,35.9,,B26
65.6,12.5,26.1,,B27
11,66.2,21.4,,B28
11,38.1,46.3,,B29
17.7,24.6,20.7,,B30
,8.12,16.8,,B31
5.3,69.6,31.3,,B32
,,,Ki (Cathepsin K [3]): 16.2 µM,B33
3.6,,31.5,,B34
1.3,10.7,41.5,,B35
10.7,,,,B36
